# What was measured:
# [1] = target: T1, Human HER3, endogenous, on human cancer cell lines (human, UniProt P21860 20-1342); assay: FACS titration on SK-Br-3 cells
# T1 construct: Endogenous antigen on SK-Br-3, MCF7 or BT-474 cells; also called HER3 on SK-Br-3 cells; HER3 on MCF7 cells
# [2] = target: T1, Human HER3, endogenous, on human cancer …; assay: cell-based or functional assay
# [3] = target: T1, Human HER3, endogenous, on human cancer …; assay: cell-based or functional assay; remark: listed apart in the source
# [4] = target: T1, Human HER3, endogenous, on human cancer …; assay: cell-based or functional assay; remark: listed apart in the source
# [5] = target: T2, Cyno HER3 (CD33-[Cyno HER3, residues 20-643]-TAG) (cynomolgus, UniProt G7PIG5 20-643); assay: solution equilibrium titration (SET), IgG
# T2 construct: range 20-643; CD33 leader left out as signal; also called cy HER3-Tag; not shown: C-terminal TAG (e.g. FLAG TAG)
# [6] = target: T3, Mu HER3 (CD33-[Murine HER3, residues 20-643]-TAG) (mouse, UniProt Q61526 20-643); assay: solution equilibrium titration (SET), IgG
# T3 construct: range 20-643; CD33 leader left out as signal; also called mu HER3-Tag; not shown: C-terminal TAG (e.g. FLAG TAG)
# [7] = target: T4, Rat HER3 (CD33-[Rat HER3, residues 20-643]-TAG) (rat, UniProt Q62799 20-643); assay: solution equilibrium titration (SET), IgG
# T4 construct: range 20-643; CD33 leader left out as signal; also called ra HER3-Tag; not shown: C-terminal TAG (e.g. FLAG TAG)
# [8] = target: T5, Hu HER3 (CD33-[Human HER3, residues 20-640]-TAG) (human, UniProt P21860 20-640); assay: solution equilibrium titration (SET), IgG
# T5 construct: N-terminal CD33 leader is a secretion signal and is left out; also called hu HER3-Tag; HER3-Tag; not shown: C-terminal TAG (e.g. FLAG TAG)
Binder,EC50 [1] [nM],BT-474 proliferation % inhibition at 10 µg/ml IgG [2] [%],MCF7 (neuregulin stimulated) proliferation % inhibition at 10 µg/ml IgG [2] [%],SK-Br-3 proliferation % inhibition at 10 µg/ml IgG [2] [%],MCF7 pHER3 % inhibition [3] [%],MCF7 pHER3 IC50 [3] [pM],SK-Br-3 pHER3 % inhibition [3] [%],SK-Br-3 pHER3 IC50 [3] [pM],BT-474 pAkt (S473) % inhibition [4] [%],SK-Br-3 pAkt (S473) % inhibition [4] [%],SK-Br-3 pAkt (S473) IC50 [4] [pM],Kd [5] [nM],Kd [6] [nM],Kd [7] [nM],Kd [8] [nM],MCF7 pAkt (S473) IC50 [4] [pM]
"MOR09823 (antibody, human IgG1, kappa, V domains shown, tested as IgG) VH: QVQLVESGGGLVQPGGSLRLSCAASGFTFSSYAMSWVRQAPGKGLEWVSVTGAVGRTYYPDSVKGRFTISRDNSKNTLYLQMNSLRAEDTAVYYCARWGDEGFDIWGQGTLVTVSS VL: DIQMTQSPSSLSASVGDRVTITCRASQGISNWLAWYQQKPGKAPKLLIYGASSLQSGVPSRFSGSGSGTDFTLTISSLQPEDFAVYYCQQYSSFPTTFGQGTKVEIKR",0.63,39.8,82,39,89,181,59,56,57,92,55,0.004,0.002,0.011,0.009,
"MOR10703 A50V_N52G (antibody, human IgG1, kappa, V domains shown, Variant of MOR10703; IgG1/kappa) VH: EVQLLESGGGLVQPGGSLRLSCAASGFTFSSYAMSWVRQAPGKGLEWVSVIGSQGKSTYYADSVKGRFTISRDNSKNTLYLQMNSLRAEDTAVYYCARWGDEGFDIWGQGTLVTVSS VL: DIQMTQSPSSLSASVGDRVTITCRASQGISNWLAWYQQKPGKAPKLLIYGASSLQSGVPSRFSGSGSGTDFTLTISSLQPEDFATYYCQQYSSFPTTFGQGTKVEIKR",,,,,,,,,,,,,,,0.022,
"MOR09825 (antibody, human IgG1, kappa, V domains shown, tested as IgG) VH: QVQLVESGGGLVQPGGSLRLSCAASGFTFSSYAMSWVRQAPGKGLEWVSAINSQGKSTYYADSVKGRFTISRDNSKNTLYLQMNSLRAEDTAVYYCARWGDEGFDIWGQGTLVTVSS VL: DIQMTQSPSSLSASVGDRVTITCRASQGISNWLAWYQQKPGKAPKLLIYGASSLQSGVPSRFSGSGSGTDFTLTISSLQPEDFAVYYCQQYSSFPTTFGQGTKVEIKR",0.839,37.2,63,41,80,399,66,169,69,91,156,0.056,0.024,0.096,0.025,294
"MOR10702 (antibody, human IgG1, kappa, V domains shown, tested as IgG) VH: EVQLLESGGGLVQPGGSLRLSCAASGFTFSSYAMSWVRQAPGKGLEWVSVISAWGHVKYYADSVKGRFTISRDNSKNTLYLQMNSLRAEDTAVYYCARWGDEGFDIWGQGTLVTVSS VL: DIQMTQSPSSLSASVGDRVTITCRASQGISNWLAWYQQKPGKAPKLLIYGASSLQSGVPSRFSGSGSGTDFTLTISSLQPEDFATYYCQQYSSFPTTFGQGTKVEIKR",,43.8,,,,,,,55,,,0.003,0.005,0.006,0.003,
"MOR10703 A50V_N52S (antibody, human IgG1, kappa, V domains shown, Variant of MOR10703; IgG1/kappa) VH: EVQLLESGGGLVQPGGSLRLSCAASGFTFSSYAMSWVRQAPGKGLEWVSVISSQGKSTYYADSVKGRFTISRDNSKNTLYLQMNSLRAEDTAVYYCARWGDEGFDIWGQGTLVTVSS VL: DIQMTQSPSSLSASVGDRVTITCRASQGISNWLAWYQQKPGKAPKLLIYGASSLQSGVPSRFSGSGSGTDFTLTISSLQPEDFATYYCQQYSSFPTTFGQGTKVEIKR",,,,,,,,,,,,,,,0.016,
"MOR09824 (antibody, human IgG1, kappa, V domains shown, tested as IgG) VH: QVQLVESGGGLVQPGGSLRLSCAASGFTFSSYAMSWVRQAPGKGLEWVSVISAWGHVKYYADSVKGRFTISRDNSKNTLYLQMNSLRAEDTAVYYCARWGDEGFDIWGQGTLVTVSS VL: DIQMTQSPSSLSASVGDRVTITCRASQGISNWLAWYQQKPGKAPKLLIYGASSLQSGVPSRFSGSGSGTDFTLTISSLQPEDFAVYYCQQYSSFPTTFGQGTKVEIKR",0.324,36.8,82,33,91,103,64,110,46,93,62,0.003,0.002,0.007,0.003,
"MOR10703 N52S (antibody, human IgG1, kappa, V domains shown, Variant of MOR10703; IgG1/kappa) VH: EVQLLESGGGLVQPGGSLRLSCAASGFTFSSYAMSWVRQAPGKGLEWVSAISSQGKSTYYADSVKGRFTISRDNSKNTLYLQMNSLRAEDTAVYYCARWGDEGFDIWGQGTLVTVSS VL: DIQMTQSPSSLSASVGDRVTITCRASQGISNWLAWYQQKPGKAPKLLIYGASSLQSGVPSRFSGSGSGTDFTLTISSLQPEDFATYYCQQYSSFPTTFGQGTKVEIKR",,,,,,,,,,,,,,,0.057,
"MOR10701 R55K (antibody, human IgG1, kappa, V domains shown, Variant of MOR10701; IgG1/kappa) VH: EVQLLESGGGLVQPGGSLRLSCAASGFTFSSYAMSWVRQAPGKGLEWVSVTGAVGKSTYYPDSVKGRFTISRDNSKNTLYLQMNSLRAEDTAVYYCARWGDEGFDIWGQGTLVTVSS VL: DIQMTQSPSSLSASVGDRVTITCRASQGISNWLAWYQQKPGKAPKLLIYGASSLQSGVPSRFSGSGSGTDFTLTISSLQPEDFATYYCQQYSSFPTTFGQGTKVEIKR",,,,,,,,,,,,,,,0.011,
"MOR12609 (antibody, human IgG1, kappa, V domains shown, tested as IgG) VH: QVQLVESGGGLVQPGGSLRLSCAASGFTFSSYAMSWVRQAPGKGLEWVSVINGLGYTTFYADSVKGRFTISRDNSKNTLYLQMNSLRAEDTAVYYCARWGDEGFDIWGQGTLVTVSS VL: DIQMTQSPSSLSASVGDRVTITCRASQGISNWLAWYQQKPGKAPKLLIYGASSLQSGVPSRFSGSGSGTDFTLTISSLQPEDFAVYYCQQYSSFPTTFGQGTKVEIKR",,,,,86,5,71,241,,,,,,,0.01,
"MOR09974 (antibody, human IgG1, kappa, V domains shown, tested as IgG) VH: QVQLVESGGGLVQPGGSLRLSCAASGFTFSSYAMSWVRQAPGKGLEWVSVINPSGNFTNYADSVKGRFTISRDNSKNTLYLQMNSLRAEDTAVYYCARWGDEGFDIWGQGTLVTVSS VL: DIQMTQSPSSLSASVGDRVTITCRASQGISNWLAWYQQKPGKAPKLLIYGASSLQSGVPSRFSGSGSGTDFTLTISSLQPEDFAVYYCQQYSSFPTTFGQGTKVEIKR",,,20,35,69,3070,67,1930,,85,814,0.2,0.12,,0.35,

# The remaining lines, values ahead:
EC50 [1] [nM],BT-474 proliferation % inhibition at 10 µg/ml IgG [2] [%],MCF7 (neuregulin stimulated) proliferation % inhibition at 10 µg/ml IgG [2] [%],SK-Br-3 proliferation % inhibition at 10 µg/ml IgG [2] [%],MCF7 pHER3 % inhibition [3] [%],MCF7 pHER3 IC50 [3] [pM],SK-Br-3 pHER3 % inhibition [3] [%],SK-Br-3 pHER3 IC50 [3] [pM],BT-474 pAkt (S473) % inhibition [4] [%],SK-Br-3 pAkt (S473) % inhibition [4] [%],SK-Br-3 pAkt (S473) IC50 [4] [pM],Kd [5] [nM],Kd [6] [nM],Kd [7] [nM],Kd [8] [nM],MCF7 pAkt (S473) IC50 [4] [pM],Binder
,,,,84,126,75,192,,,,,,,0.037,,"MOR12610 (antibody, human IgG1, kappa, V domains shown, tested as IgG) VH: QVQLVESGGGLVQPGGSLRLSCAASGFTFSSYAMSWVRQAPGKGLEWVSGTGPYGGTYYPDSVKGRFTISRDNSKNTLYLQMNSLRAEDTAVYYCARWGDEGFDIWGQGTLVTVSS VL: DIQMTQSPSSLSASVGDRVTITCRASQGISNWLAWYQQKPGKAPKLLIYGASSLQSGVPSRFSGSGSGTDFTLTISSLQPEDFAVYYCQQYSSFPTTFGQGTKVEIKR"
,,,,,,,,,,,,,,0.06,,"MOR10703 N52G (antibody, human IgG1, kappa, V domains shown, Variant of MOR10703; IgG1/kappa) VH: EVQLLESGGGLVQPGGSLRLSCAASGFTFSSYAMSWVRQAPGKGLEWVSAIGSQGKSTYYADSVKGRFTISRDNSKNTLYLQMNSLRAEDTAVYYCARWGDEGFDIWGQGTLVTVSS VL: DIQMTQSPSSLSASVGDRVTITCRASQGISNWLAWYQQKPGKAPKLLIYGASSLQSGVPSRFSGSGSGTDFTLTISSLQPEDFATYYCQQYSSFPTTFGQGTKVEIKR"
,,,,,,,,,,,,,,0.018,,"MOR10701 R55G (antibody, human IgG1, kappa, V domains shown, Variant of MOR10701; IgG1/kappa) VH: EVQLLESGGGLVQPGGSLRLSCAASGFTFSSYAMSWVRQAPGKGLEWVSVTGAVGGSTYYPDSVKGRFTISRDNSKNTLYLQMNSLRAEDTAVYYCARWGDEGFDIWGQGTLVTVSS VL: DIQMTQSPSSLSASVGDRVTITCRASQGISNWLAWYQQKPGKAPKLLIYGASSLQSGVPSRFSGSGSGTDFTLTISSLQPEDFATYYCQQYSSFPTTFGQGTKVEIKR"
,43.6,,,,,74,370,59,,,0.004,0.006,0.01,0.004,,"MOR10701 (antibody, human IgG1, kappa, V domains shown, tested as IgG) VH: EVQLLESGGGLVQPGGSLRLSCAASGFTFSSYAMSWVRQAPGKGLEWVSVTGAVGRSTYYPDSVKGRFTISRDNSKNTLYLQMNSLRAEDTAVYYCARWGDEGFDIWGQGTLVTVSS VL: DIQMTQSPSSLSASVGDRVTITCRASQGISNWLAWYQQKPGKAPKLLIYGASSLQSGVPSRFSGSGSGTDFTLTISSLQPEDFATYYCQQYSSFPTTFGQGTKVEIKR"

# Reference: patent US20130330324A1 (Novartis, published 2013)
